# Columns and labels:
# Assay in all cases: SPR
# [1] = target: plasma-derived C4b (unfractionated) (human) (UniProt P0C0L4)
# [2] = target: plasma-derived C3b (unfractionated) (human) (UniProt P01024)
# [3] = target: His-tagged CSL040/LHR-ABC (human) (UniProt P17927)
Substance,Kd [1],Kd [2],Kd [3]
"LHR-A (soluble human CR1 truncation), untagged (from UniProt P17927 42-489) (domain or fragment)",1230 nM,,
"LHR-AA (soluble human CR1 variant with two tandem LHR-A domains), untagged (from UniProt P17927 42-489; P17927 42-489)",1540 nM,,
plasma-derived C3b (unfractionated) (from UniProt P01024 749-1663; P01024 749-1663) (ligand),,,134 nM

# The next lines start with the values.
Kd [1],Kd [2],Kd [3],Substance
530 nM,305 nM,,"LHR-AB (soluble human CR1 truncation), untagged (from UniProt P17927 42-939) (domain or fragment)"
1910 nM,337 nM,,"LHR-B (soluble human CR1 truncation), untagged (from UniProt P17927 490-939) (domain or fragment)"
581 nM,78.2 nM,,"LHR-BC (soluble human CR1 truncation), untagged (from UniProt P17927 490-1392) (domain or fragment)"
,,3.8 nM,plasma-derived C3b dimer (purified by size-exclusion chromatography) (from UniProt P01024 749-1663; P01024 749-1663) (complex)
